Assay results: patent US20110150771A1

What was measured:
Experiment in all cases: cell-based or functional assay
[1] = target: DEN2 E protein of chimeric WN/DEN2 virus, V-3 seed (E-N203D; NS2A-I49T and NS2A-F94L elsewhere in the virus) (Dengue virus type 2, strain 16681 (in a West Nile NY99 backbone)) (UniProt P29990)
[2] = target: E protein of wild type West Nile virus NY99 (West Nile virus, strain NY99) (UniProt Q9Q6P4); details: scale: greatest antibody dilution that decreased plaques by at least 50%
[3] = target: DEN2 E protein of chimeric WN/DEN2 virus, C6-1 seed (Dengue virus type 2, strain 16681 (in a West Nile NY99 backbone)) (UniProt P29990)
[4] = target: DEN2 E protein of chimeric WN/DEN2 virus, V-10 seed (E-K122I/K mixed, E-S186F, E-N203D) (Dengue virus type 2, strain 16681 (in a West Nile NY99 backbone)) (UniProt P29990)
[5] = target: DEN2 E protein of chimeric WN/DEN2 virus, C6-1/V-2 seed (E-N203D) (Dengue virus type 2, strain 16681 (in a West Nile NY99 backbone)) (UniProt P29990)

DENV-2 E protein-specific monoclonal antibody (MAb3H5)
PRNT50 Titer [1]: > 2560 | PRNT50 Titer [2]: < 80 | PRNT50 Titer [3]: > 2560 | PRNT50 Titer [4]: > 2560 | PRNT50 Titer [5]: > 2560

WNV E protein-specific monoclonal antibody (MAb3.67G)
PRNT50 Titer [1]: < 1280 | PRNT50 Titer [2]: > 41000 | PRNT50 Titer [3]: < 1280 | PRNT50 Titer [4]: < 1280 | PRNT50 Titer [5]: < 1280
